Measured values taken from patent publication US20180086804A1 (COMMISSARIAT A L ENERGIE ATOMIQUE ET AUX ENERGIES …, published 2018).
Where two headings read alike, the source gives them in different places. No end group written: not given here.

T1: HLA-DR13 (HLA-DRB1*13:01) (human)
T1 chain 1: not shown
T1 chain 2: not shown


Experiments:
[1] = target: T2, HLA-DRB4 (HLA-DRB4*01:01) (human); assay: competition ELISA vs biotin-E2/E168
T2 construct: mature; purified from homozygous EBV-transformed lymphoblastoid cells with antibody L243

[2] = target: T3, HLA-DR3 (HLA-DRB1*03:01) (human); assay: competition ELISA vs biotin-MT 2-16
T3 construct: mature; purified from homozygous EBV-transformed lymphoblastoid cells with antibody L243

[3] = target: T4, HLA-DR1 (HLA-DRB1*01:01) (human); assay: competition ELISA vs biotin-HA 306-318;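 further: HLA and competitor incubated 24 to 72 h, maximal signal taken from wells lacking competitor, background from wells lacking HLA molecule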
T4 construct: mature; class II HLA molecule purified from homozygous EBV-transformed lymphoblastoid cells with antibody L243

[4] = target: T5, HLA-DR4 (HLA-DRB1*04:01) (human); assay: competition ELISA vs biotin-HA 306-318;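 further: HLA and competitor incubated 24 to 72 h, maximal signal taken from wells lacking competitor, background from wells lacking HLA molecule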
T5 construct: mature; purified from homozygous EBV-transformed lymphoblastoid cells with antibody L243

[5] = target: T6, HLA-DRB3 (HLA-DRB3*01:01) (human); assay: competition ELISA vs biotin-LOL 191-210
T6 construct: mature; purified from homozygous EBV-transformed lymphoblastoid cells with antibody L243

[6] = target: T7, HLA-DP401 (HLA-DPB1*04:01) (human, UniProt P20036 29-222); assay: competition ELISA vs biotin-Oxy 271-287
T7 construct: mature; purified from homozygous EBV-transformed lymphoblastoid cells with antibody B7/21

[7] = target: T8, HLA-DP402 (HLA-DPB1*04:02) (human, UniProt P20036 29-222); assay: competition ELISA vs biotin-Oxy 271-287
T8 construct: mature; purified from homozygous EBV-transformed lymphoblastoid cells with antibody B7/21

[8] = target: T9, HLA-DR7 (HLA-DRB1*07:01) (human); assay: competition ELISA vs biotin-YKL
T9 construct: mature; purified from homozygous EBV-transformed lymphoblastoid cells with antibody L243

[9] = target: T2, HLA-DRB4 (HLA-DRB4*01:01); assay: competition ELISA vs biotin-E2/E168; remark: listed apart in the source
[10] = target: T3, HLA-DR3 (HLA-DRB1*03:01); assay: competition ELISA vs biotin-MT 2-16; remark: listed apart in the source
[11] = target: T10, HLA-DR13 (HLA-DRB1*13:01) (human); assay: competition ELISA vs biotin-B1 21-36
T10 construct: mature; purified from homozygous EBV-transformed lymphoblastoid cells with antibody L243

[12] = target: T11, HLA-DR15 (HLA-DRB1*15:01) (human); assay: competition ELISA vs biotin-A3 152-166
T11 construct: mature; purified from homozygous EBV-transformed lymphoblastoid cells with antibody L243

[13] = target: T4, HLA-DR1 (HLA-DRB1*01:01); assay: competition ELISA vs biotin-HA 306-318; remark: listed apart in the source;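 further: HLA and competitor incubated 24 to 72 h, maximal signal taken from wells lacking competitor, background from wells lacking HLA molecule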
[14] = target: T12, HLA-DRB5 (HLA-DRB5*01:01) (human); assay: competition ELISA vs biotin-HA 306-318;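 further: HLA and competitor incubated 24 to 72 h, maximal signal taken from wells lacking competitor, background from wells lacking HLA molecule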
T12 construct: mature; purified from homozygous EBV-transformed lymphoblastoid cells with antibody L243

[15] = target: T5, HLA-DR4 (HLA-DRB1*04:01); assay: competition ELISA vs biotin-HA 306-318; remark: listed apart in the source
[16] = target: T13, HLA-DR11 (HLA-DRB1*11:01) (human); assay: competition ELISA vs biotin-HA 306-318
T13 construct: mature; purified from homozygous EBV-transformed lymphoblastoid cells with antibody L243

[17] = target: T7, HLA-DP401 (HLA-DPB1*04:01); assay: competition ELISA vs biotin-Oxy 271-287; remark: listed apart in the source
[18] = target: T8, HLA-DP402 (HLA-DPB1*04:02); assay: competition ELISA vs biotin-Oxy 271-287; remark: listed apart in the source
[19] = target: T6, HLA-DRB3 (HLA-DRB3*01:01); assay: competition ELISA vs biotin-LOL 191-210; remark: listed apart in the source
[20] = target: T9, HLA-DR7 (HLA-DRB1*07:01); assay: competition ELISA vs biotin-YKL; remark: listed apart in the source
[21] = target: T11, HLA-DR15 (HLA-DRB1*15:01); assay: competition ELISA vs biotin-A3 152-166; remark: listed apart in the source
[22] = target: T12, HLA-DRB5 (HLA-DRB5*01:01); assay: competition ELISA vs biotin-HA 306-318; remark: listed apart in the source
[23] = target: T1, HLA-DR13 (HLA-DRB1*13:01) (human); assay: competition ELISA vs biotin-B1 21-36
[24] = target: T10, HLA-DR13 (HLA-DRB1*13:01); assay: competition ELISA vs biotin-B1 21-36; remark: listed apart in the source
[25] = target: T13, HLA-DR11 (HLA-DRB1*11:01); assay: competition ELISA vs biotin-HA 306-318; remark: listed apart in the source

Binder	relative affinity [3]	relative affinity [4]	relative affinity [5]	relative affinity [6]	relative affinity [8]	relative affinity [9]	relative affinity [10]	relative affinity [11]	relative affinity [12]	relative affinity [13]	relative affinity [14]	relative affinity [15]	relative affinity [16]	relative affinity [18]	relative affinity [19]	further results
EKLSPEPILVDTASP-NH2 [CCNB1 113-127]	6000	55	151	72	–	–	–	–	–	–	–	–	–	–	–	relative affinity [1]: 231; relative affinity [2]: 6; relative affinity [7]: 71
MEMKILRALNFGLGR-NH2 [CCNB1 285-299]	–	–	–	–	0.1	18	51	1	0.03	1	2	7	4	4	–	relative affinity [17]: 30
EPILVDTASPSPMET-NH2 [CCNB1 118-132]	–	–	–	–	–	–	0.4	–	400	6360	–	0.3	–	–	12	–
HTLAKYLMELTMLDY-NH2 [CCNB1 320-334]	–	–	–	–	18	18	1	10	3	16	17	1	2	3	24	relative affinity [17]: 8
AKYLMELTMLDYDMV-NH2 [CCNB1 323-337]	–	–	–	–	8	7	2	–	2	4	2	0.2	0.4	6	41	relative affinity [17]: 1
ESLLPVMQHLAKNVV-NH2 [CCNB1 374-388]	–	–	–	–	3	424	764	6	19	837	91	91	0.3	–	–	–
PQLNSALVQDLAKAV-NH2 [CCNB1 416-430]	–	–	–	–	47	1800	9	–	71	693	548	54	123	74	3	relative affinity [17]: 59
NSALVQDLAKAVAKV-NH2 [CCNB1 419-433]	–	–	–	–	183	–	1	37	7	155	–	333	3	148	7	–
PNLCSEYVKDIYAYL-NH2 [CCNB1 164-178]	2830	527	53	274	–	–	–	–	–	–	–	–	–	–	–	relative affinity [20]: 73; relative affinity [1]: 40; relative affinity [21]: 28; relative affinity [22]: 500; relative affinity [7]: 625
TERVRLVTRHIYNREE (modifications not checked) [B1 21-36]	–	–	–	–	–	–	–	–	–	–	–	–	–	–	–	IC50 [23]: 51 nM
REVTGNMRAILIDWL-NH2 [CCNB1 195-209]	55	260	20	725	–	–	–	–	–	–	–	–	–	–	–	relative affinity [1]: 23; relative affinity [2]: 1; relative affinity [24]: 45; relative affinity [21]: 30; relative affinity [22]: 1410; relative affinity [25]: 1180; relative affinity [7]: 791
HQIRQMEMKILRALN-NH2 [CCNB1 280-294]	–	–	–	–	462	–	0.2	–	0.3	1220	4	0.4	2000	–	53	–
QAFSDVILAVNDVDA-NH2 [CCNB1 144-158]	1730	12	18	51	–	–	–	–	–	–	–	–	–	–	–	relative affinity [2]: 8; relative affinity [21]: 46
AKISTLPQLNSALVQ-NH2 [CCNB1 410-424]	–	–	–	–	–	966	–	94	12	89	–	408	1	1120	–	–
LSYTEESLLPVMQHL-NH2 [CCNB1 369-383]	212	58	72	4	–	–	–	–	–	–	–	–	–	–	–	relative affinity [20]: 91; relative affinity [21]: 350; relative affinity [22]: 1380; relative affinity [25]: 45; relative affinity [7]: 1
